This is an account of results in paper PMC12008863 (Journal of Translational Medicine, 2025).

Test [1] concerns the target T1, Transthyretin (human, amino acids 21-147, recombinant) (human, UniProt P02766 21-147). Kind of test: SPR. (SPR reads the build-up and loss of mass on a sensor chip optically.)
Test [2] addresses T1, Transthyretin (human, amino acids …). Briefly: Langmuir equilibrium adsorption.

B1: Heterogeneous nuclear ribonucleoprotein A2B1 (human, amino acids 12-195, recombinant) (domain or fragment)
chain: RKKREKEQFRKLFIGGLSFETTEESLRNYYEQWGKLTDCVVMRDPASKRSRGFGFVTFSSMAEVDAAMAARPHSIDGRVVEPKRAVAREESGKPGAHVTVKKLFVGGIKEDTEEHHLRDYFEEYGKIDTIEIITDRQSGKKRGFGFVTFDDHDPVDKIVLQKYHTINGHNAEVRKALSRQEMQE
As a reminder, the Kd is the constant that tells how readily two partners part at equilibrium. In the case of B1, the figures for the dissociation constant Kd in test [1] and in test [2] were 3.68 µM and 7.13 µM, respectively.
